This experiment concerns the target Recombinant human CD8ab protein (extracellular domains of CD8a and CD8b with leucine zippers and tags) (human) (UniProt P01732). Briefly: ELISA: antigen coated on the plate, antibody titrated, anti-IgG (Fc)-HRP and TMB, A450. In general terms: In an ELISA, binding on a coated surface is turned into a signal by an enzyme label.

The source of these data is patent US20220162314A1.

Chain of Recombinant human CD8ab protein (extracellular domains of CD8a and CD8b with leucine zippers and tags) (human) (P01732 22-182, chain 1 of 2): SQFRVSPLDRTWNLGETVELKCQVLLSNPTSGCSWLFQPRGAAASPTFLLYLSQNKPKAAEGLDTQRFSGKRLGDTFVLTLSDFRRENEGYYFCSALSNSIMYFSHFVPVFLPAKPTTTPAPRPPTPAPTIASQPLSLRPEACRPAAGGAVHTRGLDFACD
Chain of Recombinant human CD8ab protein (extracellular domains of CD8a and CD8b with leucine zippers and tags) (human) (P10966 22-170, chain 2 of 2, further chain): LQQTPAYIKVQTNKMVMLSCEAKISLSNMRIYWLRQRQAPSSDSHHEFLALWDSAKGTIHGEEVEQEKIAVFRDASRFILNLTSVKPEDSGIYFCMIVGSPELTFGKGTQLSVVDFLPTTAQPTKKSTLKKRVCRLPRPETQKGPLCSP

B1: xhCD8a1 (clone OKT8, Invitrogen) (antibody, from another filing, V domains shown)
VH: EVQLQQSGAELVKPGASVKLSCTASGFNIKDTYIHFVRQRPEQGLEWIGRIDPANDNTLYASKFQGKATITADTSSNTAYMHLCSLTSGDTAVYYCGRGYGYYVFDHWGQGTTLTVSS
VL: DVQINQSPSFLAASPGETITINCRTSRSISQYLAWYQEKPGKTNKLLIYSGSTLQSGIPSRFSGSGSGTDFTLTISGLEPEDFAMYYCQQHNENPLTFGAGTKLELK
B1: the EC50 (read off the curve) (commonly the midpoint of the concentration-response curve) was found to be 0.2 nM.
